# Data as given in the supplement of paper PMC9732359.
# ± gives the uncertainty stated by the source.
# Test: protein stability index of a GFP-peptide fusion (yeast GPS) (PSI 1-4); higher = more stable; sorted into four equal gates, so the index is relative within each strain
# Summary of the method: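 Yeast carrying a pooled library were grown to mid-log phase in leucine-free medium. Each library plasmid expresses Cherry and has a tiled 17-residue yeast protein peptide fused downstream of GFP. Cells were sorted into four equal gates by GFP/Cherry ratio, and plasmids from each gate were PCR-amplified, Illumina-sequenced and assigned to strains by barcode. Summing, across gates, the read frequency times the gate number gave each peptide's protein stability index.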
Sequence,protein stability index (doa10∆),protein stability index (pdr5∆),protein stability index (san1∆),protein stability index (ubr1∆)
GSLWVEFCDEPSVGVKT [RPB5],2.84 ± 0.054,2.86 ± 0.076,3 ± 0.093,2.92 ± 0.053
TFQRVCQYMVACVPLLP [RPN1],2.5 ± 0.06,2.42 ± 0.071,1.86 ± 0.14,2.53 ± 0.1
LLHVAVSDSNDDVRRAA [RPN2],3.01 ± 0.087,3.22 ± 0.076,2.69 ± 0.12,3.13 ± 0.11
RRGTALGIKKEKRIQYA [RPB2],1.95 ± 0.08,1.44 ± 0.14,2.33 ± 0.15,2.89 ± 0.072
QFEVSDDEKNDKQARKQ [SNF2],3.38 ± 0.083,3.4 ± 0.12,3.06 ± 0.069,3.29 ± 0.077
LERYYKEQADIYAKQQE [ARP7],3.29 ± 0.29,–,–,3.42 ± 0.14
SLAATYSMISLQNCCII [ARP9],1.47 ± 0.057,1.33 ± 0.056,1.26 ± 0.099,1.26 ± 0.041
LRAIEKNDDNSCRNPEH [YIL149C/MLP2],3.19 ± 0.16,3.25 ± 0.088,3.27 ± 0.13,3.15 ± 0.14
DIDGIMDNPRKLSKILR [SNU114],3.01 ± 0.074,2.96 ± 0.084,2.94 ± 0.058,2.96 ± 0.067
ERDCVIAYGASQLLLER [RET1],1.18 ± 0.058,1.28 ± 0.057,1.24 ± 0.14,1.11 ± 0.051
VELPYGAHGYSGFYTFS [PRE1],2.92 ± 0.17,2.32 ± 0.17,2.9 ± 0.13,2.83 ± 0.095
MQAIADSFSVPNRLVKE [PRE2],2.94 ± 0.14,3.02 ± 0.24,3.03 ± 0.14,–
IQTKEQVSINSNKILVY [YIL149C/MLP2],2.21 ± 0.076,2.75 ± 0.17,1.85 ± 0.21,2.96 ± 0.15
LLDILVKGETRIQNRVK [PRP8],3.38 ± 0.14,2.98 ± 0.097,3.49 ± 0.096,2.94 ± 0.068
IPDFRSSEGFYSKIKHL [SIR2],2.33 ± 0.13,2.21 ± 0.075,2.17 ± 0.15,2.45 ± 0.079
VEAIRRSNQYQRGKMHG [NUT2],2.85 ± 0.085,2.64 ± 0.076,2.83 ± 0.11,2.6 ± 0.099
TVEGISKLLREHGYQSR [RPB2],3.4 ± 0.21,2.97 ± 0.21,–,2.64 ± 0.093
LYNDNNKNNNNRHNLLN [SWI1],3.08 ± 0.1,1.96 ± 0.062,1.95 ± 0.065,2.4 ± 0.047
YGKPTNQGVNELKYQRS [RPL15A],2.9 ± 0.16,3.23 ± 0.17,2.59 ± 0.14,3.03 ± 0.087
HASFLCSFITQDKMFVS [FAS1],2.01 ± 0.063,1.64 ± 0.056,1.35 ± 0.1,1.35 ± 0.033
ETLKRDRKQSQATNATN [ARP7],2.69 ± 0.074,2.86 ± 0.082,2.39 ± 0.11,2.74 ± 0.068
SVYYHKGNFRTKPFENV [SNU114],3.35 ± 0.065,3.35 ± 0.091,3.37 ± 0.059,3.31 ± 0.092
QQKLNTRMQRGHRADVG [REC8],2.84 ± 0.16,2.85 ± 0.096,2.84 ± 0.15,3.3 ± 0.088
LHYCVSCAIHARIVRVR [RPS26A],1.17 ± 0.066,1.2 ± 0.083,1.15 ± 0.13,1.2 ± 0.12
LFQLLNALTVGDFDKFD [RPN9],3.1 ± 0.29,2.36 ± 0.26,–,1.8 ± 0.28
DLETLTMHTKTYAAEIA [RPL32],2.99 ± 0.061,2.74 ± 0.054,2.42 ± 0.053,2.63 ± 0.059
EASNTPIEHQFNPYGDN [PRE7],3.15 ± 0.08,3.33 ± 0.089,3.54 ± 0.091,3.38 ± 0.086
